To fix the notation:
B1: Human PHOX2B transcription factor fragment comprising 26 alanine residues (XS26) (other)
chain: GPGGPGGEPGKGGAAAAAAAAAAAAAAAAAAAAAAAAAAGGLAAAGGPGQGWAPGPGPITSIPDSLGGPFASVLSSLQRPNGAKAALVKSSMF
notes: C-terminal fragment of human PHOX2B (XS construct, 228-314 in wild-type numbering) with the polyAla tract expanded from 20 to 26 alanines (241-266); Made in E. coli as a thioredoxin-His6-TEV fusion and cleaved with TEV; 15N/13C-labelled for NMR; For microscopy a C315 mutant tagged with ATTO-488 or ATTO-565 was mixed 1:400-1:600 with the unlabelled protein; also called +6 Ala variant; expanded …
B2: Human PHOX2B transcription factor fragment comprising 23 alanine residues (XS23) (other)
chain: GPGGPGGEPGKGGAAAAAAAAAAAAAAAAAAAAAAAGGLAAAGGPGQGWAPGPGPITSIPDSLGGPFASVLSSLQRPNGAKAALVKSSMF
notes: XS fragment of human PHOX2B with the polyAla tract expanded from 20 to 23 alanines; Made as a thioredoxin-His6-TEV fusion and cleaved with TEV; also called +3 Ala variant
B3: Human PHOX2B transcription factor fragment comprising 20 alanine residues (XS20) (other)
chain: GPGGPGGEPGKGGAAAAAAAAAAAAAAAAAAAAGGLAAAGGPGQGWAPGPGPITSIPDSLGGPFASVLSSLQRPNGAKAALVKSSMF
notes: Fragment of residues 228-314 of human PHOX2B, polyAla tract at 241-260; Made as a thioredoxin-His6-TEV fusion and cleaved with TEV; For microscopy a C315 mutant tagged with ATTO-488 or ATTO-565 was mixed 1:400-1:600 with the unlabelled protein; also called wild type PHOX2B fragment; wt PHOX2B (20 alanines)

In data set [1] the target is Human PHOX2B transcription factor fragment comprising 26 alanine residues (XS26) (human) (UniProt Q99453). As to the kind of experiment: 13C-HSQC NMR titration, 0.1 mM XS26, 1:1 molar ratio, 25°C.
The target is the same in data set [2]. The data set can be described thus: CACO NMR, 0.225 mM XS26 incubated 48 h at 25°C with 0.45 mM HSP70 (1:2).
Data set [3] concerns the molecule itself. As to the kind of experiment: 15N spin relaxation, self-association.
Data set [4] deals with the molecule itself. The data set can be described thus: 15N spin relaxation, overall correlation time, self-association.
The target in data set [5] is B1. The data set can be described thus: confocal fluorescence microscopy, colocalisation in condensates.

Turning to “Human HSP90β (named HSP90) (from UniProt P08238 1-724)”, in data set [1], the decrease of NMR signal intensity, polyAla moieties in disordered conformation was more than 50% and the decrease of NMR signal intensity, polyAla tract in α-helical conformation is less than 40%.
On to “Human HSP72 (named HSP70) (from UniProt P54652 1-639)”, for which, in data set [1], the decrease of NMR signal intensity, polyAla moieties in disordered conformation was more than 50% and the decrease of NMR signal intensity, polyAla tract in α-helical conformation was less than 20%. Moreover, the decrease of the population of nascent disordered alanines (CACO signal intensity) in data set [2] was determined as 50%.
For B1, the binding result in data set [3] is recorded as “binds”.
The same measure, in the same setting: for B2 the value was “binds”.
For the molecule B3, the binding result in data set [4] and in data set [5] was “binds” each time.
